This is an account of results in the Immune Epitope Database (IEDB).

Where only a bound is given, the exact number is not on record here.

In assay [1] the target is HLA-A*02:06. Nature of the assay: IEDB peptide-MHC binding, purified MHC/competitive/radioactivity; filed as Kd, often an IC50 or EC50 that approximates it; ≥ and ≤ were set here for values at or beyond the usual limits of such assays.
The target of assay [2] is HLA-A*02:17. Described as above.
In assay [3] the target is HLA-B*15:03. The assay is described as above.
In assay [4] the target is HLA-A*02:01. Described as above.
The target of assay [5] is HLA-B*40:01. The description is as above.
Assay [6] concerns the target HLA-B*44:02. Described as above.
In assay [7] the target is HLA-B*44:03. The assay is described as above.
Assay [8] concerns the target HLA-B*46:01. Nature of the assay: IEDB peptide-MHC binding, purified MHC/competitive/fluorescence; filed as Kd, often an IC50 or EC50 that approximates it; ≥ and ≤ were set here for values at or beyond the usual limits of such assays.
The target in assay [9] is HLA-A*23:01. The experiment in a line: IEDB peptide-MHC binding, purified MHC/competitive/radioactivity; filed as Kd, often an IC50 or EC50 that approximates it; ≥ and ≤ were set here for values at or beyond the usual limits of such assays. Conditions: source organism: Dengue virus 2 Jamaica/1409/1983.
Assay [10] has as its target HLA-A*32:01. Described as above.
Assay [11] has as its target HLA-A*30:01. Described as above. Particulars: source organism: Vaccinia virus WR.
The target in assay [12] is HLA-B*08:01. Described as above.
Assay [13] concerns the target HLA-B*15:01. The description is as above. Conditions: source organism: Vaccinia virus WR.
In assay [14] the target is HLA-B*27:05. Nature of the assay: IEDB peptide-MHC binding, purified MHC/direct/fluorescence; filed as Kd, often an IC50 or EC50 that approximates it; ≥ and ≤ were set here for values at or beyond the usual limits of such assays.
The target of assay [15] is HLA-B*48:01. The description is as above. Conditions: source organism: Escherichia coli O157:H7.
In assay [16] the target is HLA-A*01:01. The description is as above. Particulars: source organism: Yersinia pestis.
Assay [17] concerns the target HLA-A*02:01. Described as above. Particulars: source organism: Yersinia pestis Nepal516.
In assay [18] the target is HLA-A*03:01. Described as above. Conditions: source organism: Yersinia pestis Nepal516.
Assay [19] concerns the target HLA-A*11:01. The description is as above. Conditions: source organism: Yersinia pestis Nepal516.
Assay [20] concerns the target HLA-A*24:03. The description is as above. Conditions: source organism: Yersinia pestis Nepal516.
The target in assay [21] is HLA-A*26:01. Described as above. Particulars: source organism: Yersinia pestis Nepal516.
Assay [22] deals with HLA-A*31:01. The description is as above. Conditions: source organism: Yersinia pestis Nepal516.
Assay [23] deals with HLA-A*69:01. Described as above. Particulars: source organism: Yersinia pestis Nepal516.
For assay [24], the target named is HLA-B*07:02. Described as above. Particulars: source organism: Yersinia pestis Nepal516.
The target in assay [25] is HLA-B*08:01. The assay is described as above.
Assay [26] concerns the target HLA-B*15:01. Described as above. Particulars: source organism: Yersinia pestis Nepal516.
Assay [27] addresses HLA-B*40:01. Described as above. Conditions: source organism: Yersinia pestis Nepal516.
In assay [28] the target is HLA-B*44:02. The assay is described as above. Particulars: source organism: Yersinia pestis Nepal516.
The target in assay [29] is HLA-B*58:01. Described as above.
Assay [30] addresses HLA-B*08:02. The assay is described as above.
Assay [31] has as its target HLA-A*02:03. Nature of the assay: IEDB peptide-MHC binding, purified MHC/competitive/radioactivity; filed as Kd, often an IC50 or EC50 that approximates it; ≥ and ≤ were set here for values at or beyond the usual limits of such assays. Particulars: source organism: Dengue virus 3 Martinique/1243/1999.
The target of assay [32] is HLA-B*57:01. The experiment in a line: IEDB peptide-MHC binding, purified MHC/direct/fluorescence; filed as Kd, often an IC50 or EC50 that approximates it; ≥ and ≤ were set here for values at or beyond the usual limits of such assays. Particulars: source organism: Vibrio vulnificus.
Assay [33] addresses HLA-A*02:12. Described as above. Particulars: source organism: dengue virus type 3.
Where [34] appears, read: source organism: Dengue virus 2 Jamaica/1409/1983.
Where [35] appears, read: source organism: Vaccinia virus Copenhagen.
[36] abbreviates: source organism: Dengue virus 4 Philippines/H241/1956.
Where [37] appears, read: source organism: Dengue virus 1 Singapore/S275/1990.
The mark [38] stands for this setting: source organism: Dengue virus 1 Brazil/97-11/1997.
[39] abbreviates: source organism: Vaccinia virus WR.
Where [40] appears, read: source organism: Dengue virus 3 Sri Lanka/1266/2000.
The mark [41] stands for this setting: source organism: Yersinia pestis Nepal516.
The mark [42] stands for this setting: source organism: Listeria monocytogenes serotype 4b str. H7858.
Where [43] appears, read: source organism: Dengue virus 3 Martinique/1243/1999.

Turning to AAAWYLWEV, the Kd in assay [1] (setting [34]) amounted to 3.38 nM; in [2] (setting [34]), 1420 nM.
As for ISSRESVSF, in [3] (setting [35]), the Kd is 12.1 nM.
For ILGAQALPV, the equilibrium dissociation constant (Kd) in [4] (setting [36]) was determined as 32.7 nM; in [2] (setting [36]), 2550 nM.
Regarding MLLMLLPTAL, the equilibrium dissociation constant (Kd) in assay [4] (setting [37]) came to 16.6 nM; in assay [1] (setting [38]), 5.36 nM; in [2] (setting [37]) it was 78 nM.
For SEIQLTDYGA, the results for the Kd in assay [5] (setting [38]), in assay [6] (setting [38]) and in assay [7] (setting [38]) were 972 nM, 149 nM and 42.6 nM, respectively.
For SNINDFNIF, the Kd in assay [3] (setting [39]) is 501 nM.
Take ALFSGVSWVM: the values for the Kd in assay [4] (setting [40]) and in [2] (setting [40]) were 7.22 nM and 686 nM, respectively.
As for TLYAVATTF, the dissociation constant (Kd) in [8] (source organism: Dengue virus 2 Thailand/NGS-C/1944) was at least 20000 nM; in assay [9] it was 134 nM; in assay [10] (setting [34]) it was 81.3 nM.
KKMQSYNSV: the Kd in [3] (setting [39]) was determined as 2.81 nM.
In the case of KLVIFPSHL, the Kd in [3] (setting [39]) was found to be 1170 nM.
Consider EKTQYTNDF, for which the Kd is 1340 nM in [11]; at least 77800 nM in [10] (setting [39]); at least 26700 nM in assay [12] (setting [39]); 12700 nM in [13]; 832 nM in [3] (setting [39]).
Turning to FHVRRLLKF, in assay [3] (setting [35]), the Kd was 21.3 nM.
As to RRHPMRLRK, the figures for the Kd in assay [14] (source organism: Escherichia coli O157:H7) and in assay [15] were 24.8 nM and at least 20000 nM, respectively.
With LKYYYSNSY, the dissociation constant (Kd) in assay [3] (setting [39]) was 0.242 nM.
Take EQKLRPNSF: the Kd in assay [11] was 1010 nM; in assay [10] (setting [39]), 12200 nM; in [12] (setting [39]) it was 6140 nM; in assay [13], 8990 nM; in assay [3] (setting [39]), 1100 nM.
Turning to IKVTAASPM, in [3] (setting [39]), the Kd is 2.76 nM.
Consider LQMEDKAWLV, for which the Kd in assay [4] (setting [34]) stood at 3.64 nM; in assay [1] (setting [34]), 2.72 nM; in assay [2] (setting [34]), 119 nM.
Consider IIIPLSVSI, for which the Kd was 1290 nM in [11]; 69.6 nM in [10] (setting [39]); at least 31000 nM in [12] (setting [39]); 298 nM in assay [13]; 1230 nM in assay [3] (setting [39]).
HEMYWVSGV: the Kd in assay [6] (setting [36]) stood at 51.5 nM.
FLSNCEKQF: the Kd in assay [3] (setting [39]) was 21 nM.
Turning to CMVICLLSF, the dissociation constant (Kd) in assay [3] (setting [35]) was 641 nM.
On to AEMEEALRGL, for which the figures for the Kd in assay [5] (setting [34]), in assay [6] (setting [34]) and in assay [7] (setting [34]) were 13 nM, 17.6 nM and 31.6 nM, respectively.
On to IMTSGVIPF, for which, in assay [3] (setting [35]), the Kd is 0.223 nM.
On to ITNTEINSF, for which the Kd came to 413 nM in [10] (setting [39]) and 421 nM in assay [3] (setting [39]).
As for LSEEIGLDL, the Kd in assay [16] is 6380 nM; in [17] it was at least 20000 nM; in [18], at least 20000 nM; in [19], at least 20000 nM; in assay [20] it was at least 20000 nM; in [21] it was at least 20000 nM. Further, the Kd in assay [22], in [23], in assay [24], in assay [25] (setting [41]), in [26] and in assay [14] (setting [41]) was at least 20000 nM each time. Besides, the Kd in assay [27], in [28] and in [29] (setting [41]) was at least 20000 nM each time.
For the sequence SIILEFFLMV, the Kd in assay [4] (setting [36]) is 9.85 nM; in assay [1] (setting [38]), 15.7 nM; in assay [2] (setting [36]), 118 nM.
For the sequence HLKRRKEPL, the Kd in [25] (setting [42]) stood at 16 nM; in assay [30] (setting [42]), 456 nM.
In the case of ALFSGVSWV, the Kd worked out at 0.36 nM in assay [31], 1.97 nM in assay [1] (setting [43]) and 452 nM in assay [2] (setting [40]).
FSILFSNNF: the Kd in [3] (setting [39]) came out at 29.7 nM.
On to ESVKFGNSI, for which the Kd in [3] (setting [39]) amounted to 102 nM.
Turning to LAFSTRFSF, the Kd came out at 292 nM in assay [32], 144 nM in assay [29] (source organism: Vibrio vulnificus) and 661 nM in [8] (source organism: Vibrio vulnificus YJ016).
On to TEPEDIDCW, for which the Kd in [6] (setting [36]) is 1140 nM.
On to VQHNIKHSF, for which the Kd in assay [3] (setting [39]) was 0.203 nM.
For the sequence MVRLPYKDA, the Kd is 0.763 nM in [11]; at least 77800 nM in assay [10] (setting [39]); at least 77700 nM in assay [12] (setting [39]); at least 50700 nM in assay [13]; at least 29900 nM in assay [3] (setting [39]).
As for MEEALKGLPI, the figures for the Kd in assay [5] (setting [43]), in assay [6] (setting [43]) and in [7] (setting [43]) were 86.6 nM, 338 nM and 205 nM, respectively.
For the sequence LILGAQALPV, the Kd in assay [4] (setting [36]) was determined as 54.4 nM; in assay [1] (setting [36]), 18.3 nM; in [2] (setting [36]), 482 nM.
Consider TLKRRSWPL, for which the Kd amounted to 4 nM in [33], 88 nM in [30] (source organism: dengue virus type 3) and 1.18 nM in [12] (setting [43]).
